In PMC2930068:
Read-outs that look alike come from different tables or passages of the source.

Experiments:
STAT1 = STAT1 (UniProt P42224); test: sedimentation velocity analytical ultracentrifugation; conditions: reference: uSTAT1; sites Y701
[1] = target: full-length importin-α5 with C-terminal Strep-tag (human) (UniProt P52294); test: SEC
[2] = target: importin α5, GST-tag removed (human) (UniProt P52294); test: AUC
[3] = target: GST-importin α1/α5 (res. 1-446 of α1/449-538 of α5) (human) (UniProt P52292); test: SPR
[4] = target: GST-importin α5 (1-538) Tyr476Gly (human) (UniProt P52294); test: SPR
[5] = target: GST-importin α5 (res. 1-538) (human) (UniProt P52294); test: SPR
[6] = target: GST-importin α5 (res. 1-538) (human) (UniProt P52294); test: SPR; remark: listed apart in the source
[7] = target: GST-importin α5 (1-538) Tyr476Gly (human) (UniProt P52294); test: SPR; remark: listed apart in the source

GST-importin α5 (1-538) Tyr476Gly (human), sequence (P52294 whole entry Y476G): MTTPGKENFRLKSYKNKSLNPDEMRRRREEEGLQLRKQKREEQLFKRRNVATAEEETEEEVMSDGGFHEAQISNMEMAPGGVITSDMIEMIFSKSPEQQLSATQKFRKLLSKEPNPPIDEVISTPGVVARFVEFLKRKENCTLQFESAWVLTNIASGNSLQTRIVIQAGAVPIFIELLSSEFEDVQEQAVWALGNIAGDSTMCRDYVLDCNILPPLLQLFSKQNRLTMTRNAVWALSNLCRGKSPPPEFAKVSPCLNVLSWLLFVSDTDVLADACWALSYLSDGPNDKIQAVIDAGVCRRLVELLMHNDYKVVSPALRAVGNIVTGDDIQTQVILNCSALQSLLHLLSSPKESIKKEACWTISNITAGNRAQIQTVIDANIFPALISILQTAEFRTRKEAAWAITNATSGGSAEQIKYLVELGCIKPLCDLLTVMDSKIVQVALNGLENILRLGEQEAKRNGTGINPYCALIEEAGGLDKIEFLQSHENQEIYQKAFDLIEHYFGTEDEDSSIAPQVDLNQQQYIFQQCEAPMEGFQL
GST-importin α5 (res. 1-538) (human), sequence (P52294 whole entry): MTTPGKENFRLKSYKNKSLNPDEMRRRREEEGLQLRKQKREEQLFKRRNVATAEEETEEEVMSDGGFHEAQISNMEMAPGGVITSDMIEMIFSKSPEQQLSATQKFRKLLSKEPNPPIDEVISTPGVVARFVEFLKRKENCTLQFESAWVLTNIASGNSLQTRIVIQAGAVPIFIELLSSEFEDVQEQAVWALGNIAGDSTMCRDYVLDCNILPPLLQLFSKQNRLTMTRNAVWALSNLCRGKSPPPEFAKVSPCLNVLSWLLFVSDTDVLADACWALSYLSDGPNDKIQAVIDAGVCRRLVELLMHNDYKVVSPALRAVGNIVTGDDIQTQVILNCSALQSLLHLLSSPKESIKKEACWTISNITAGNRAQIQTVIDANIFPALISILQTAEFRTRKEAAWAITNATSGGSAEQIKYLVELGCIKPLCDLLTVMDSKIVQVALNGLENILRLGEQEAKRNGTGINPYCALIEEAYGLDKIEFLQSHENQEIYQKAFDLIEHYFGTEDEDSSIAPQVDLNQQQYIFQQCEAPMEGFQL
STAT1 (from UniProt P42224) pSTAT1, sequence (P42224 whole entry, change not shown): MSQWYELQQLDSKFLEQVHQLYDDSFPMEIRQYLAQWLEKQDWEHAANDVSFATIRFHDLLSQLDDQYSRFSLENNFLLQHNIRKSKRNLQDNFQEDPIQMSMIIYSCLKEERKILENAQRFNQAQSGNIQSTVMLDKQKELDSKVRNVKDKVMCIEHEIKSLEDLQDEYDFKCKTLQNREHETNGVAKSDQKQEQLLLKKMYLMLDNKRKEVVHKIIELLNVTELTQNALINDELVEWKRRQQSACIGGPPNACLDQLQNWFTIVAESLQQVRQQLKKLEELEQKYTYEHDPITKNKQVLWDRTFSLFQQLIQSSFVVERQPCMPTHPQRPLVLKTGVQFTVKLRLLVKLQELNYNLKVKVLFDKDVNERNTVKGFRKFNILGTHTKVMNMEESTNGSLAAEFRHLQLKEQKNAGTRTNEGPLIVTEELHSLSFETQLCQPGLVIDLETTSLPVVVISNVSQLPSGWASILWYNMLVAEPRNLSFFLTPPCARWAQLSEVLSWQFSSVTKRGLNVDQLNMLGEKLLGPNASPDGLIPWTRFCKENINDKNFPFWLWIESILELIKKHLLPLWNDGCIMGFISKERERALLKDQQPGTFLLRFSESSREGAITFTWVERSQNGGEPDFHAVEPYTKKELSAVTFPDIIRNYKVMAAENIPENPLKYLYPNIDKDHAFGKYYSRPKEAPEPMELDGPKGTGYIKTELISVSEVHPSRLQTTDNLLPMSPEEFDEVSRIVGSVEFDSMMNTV
STAT1 (UniProt P42224), sequence (P42224 whole entry): as the sequence (P42224 whole entry, change not shown) above
importin α5, GST-tag removed (human), sequence (P52294 whole entry): as the sequence (P52294 whole entry) above
full-length importin-α5 with C-terminal Strep-tag (human), sequence (P52294 whole entry): as above
phosphorylated-Tyr701 STAT1 (1-712), N-terminal 6-histidine tag, sequence (P42224 1-712): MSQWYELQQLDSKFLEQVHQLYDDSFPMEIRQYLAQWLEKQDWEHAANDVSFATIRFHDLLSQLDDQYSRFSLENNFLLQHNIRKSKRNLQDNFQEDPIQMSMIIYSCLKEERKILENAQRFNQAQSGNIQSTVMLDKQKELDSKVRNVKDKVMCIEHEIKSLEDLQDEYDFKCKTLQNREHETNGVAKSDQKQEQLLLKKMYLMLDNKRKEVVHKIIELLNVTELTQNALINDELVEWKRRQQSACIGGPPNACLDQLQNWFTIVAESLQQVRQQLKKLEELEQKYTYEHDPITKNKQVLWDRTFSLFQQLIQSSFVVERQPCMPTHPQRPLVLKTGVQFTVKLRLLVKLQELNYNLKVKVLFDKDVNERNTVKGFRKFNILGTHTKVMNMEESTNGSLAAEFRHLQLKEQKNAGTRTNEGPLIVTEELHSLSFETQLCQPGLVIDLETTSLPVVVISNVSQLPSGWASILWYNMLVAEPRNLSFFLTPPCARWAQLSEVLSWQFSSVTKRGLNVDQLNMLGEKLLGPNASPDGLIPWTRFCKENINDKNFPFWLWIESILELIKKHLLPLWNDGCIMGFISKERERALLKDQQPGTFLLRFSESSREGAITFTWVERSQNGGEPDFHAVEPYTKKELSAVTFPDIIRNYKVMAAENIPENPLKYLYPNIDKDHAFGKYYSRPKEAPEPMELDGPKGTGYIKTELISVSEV

For STAT1 (from UniProt P42224) pSTAT1, the “other: molecular weight” value (STAT1) was “same; reference ~180”.
For “Strep-tagged phosphorylated-Tyr701 STAT1 (from UniProt P42224 1-750) (natural protein)”, the stoichiometry N (pSTAT1 dimer per importin α5 molecule) [1] was 1.
In the case of “phosphorylated-Tyr701 STAT1 (1-712), N-terminal 6-histidine tag (from UniProt P42224-2 1-712) (natural protein)”, the stoichiometry N (pSTAT1 dimer per importin α5 molecule) [2] is reported as 1, the Kd [3] is reported as 542 nM and the Kd [4] is reported as 4300 nM. The koff [4] was 0.289 s⁻¹, the kon [4] was 66600 M⁻¹ s⁻¹ and the Kd [5] was 191 nM. It also gave a koff [5] of 0.0189 s⁻¹, a kon [5] of 98800 M⁻¹ s⁻¹ and a koff [6] of 0.0183 s⁻¹. For the same substance, the koff [7] was 289 s⁻¹.
